Measurements: publication PMC10936178 (mBio, 2024)

B1: full-length Plasmodium vivax Sub1 (PvS1FL), recombinant, autocleaved at Asp202 (enzyme)
chain 1: GDILPNEGKKEKDDVHKIISELRFLQKVETILESSNMSVSDVEADANAYNPDRDAPKEELQKLQDQQETPSKQPNNLRNSPQKRAEKKESPGKNKKSLRLIVSENHATSPSFFEESLLQEDVVSFIQSKGKLSNLKNLKSMIIDLNSDMTDEELAEYISLLERKGALIESDKLVGAD
chain 2: DVSLASVKDAVRRGESSVNWGKLRSTMLEVPSGESPPSHAASSGSPFDDDDDLLSEAALHREEAHLAGSKTTKGYKFNDEYRNLQWGLDLARLDETQDLINANRVSVTKICVIDSGIDYNHPDLRNNIDVNVKELHGRKGVDDDSNGVVDDVYGANFVNNSGDPMDDNYHGTHVSGIISAVGNNGIGIVGVDGHSKLVICKALDQHKLGRLGDMFKCIDYCISRQAHMINGSFSFDEYSNIFNASVEHLRSLGILFFVSASNCAHDKLSKPDIAKCDLAVNHRYPPILSKTHNNVIAVANLKRDLDESYSLSVNSFYSNIYCQLAAPGTNIYSTTPMNNYRKLNGTSMASPHVAAIASIVRSINPNLTYLQIVEILRNAIVKLPSLTERVSWGGYVDILRAVNLAIDSKAAPYIKSHSWFRWKQGSRR
notes: Prodomain of P. vivax Sub1 up to the primary maturation site Asp202; Catalytic domain of P. vivax Sub1, from the residue after the primary maturation site Asp202 to the C-terminus

Key:
[1] = target: PvS1FL (full-length Plasmodium vivax subtilisin-like protease 1, Sub1, autoprocessed with bound prodomain) (UniProt E6Y8B9); assay: analytical ultracentrifugation, sedimentation equilibrium (Beckman Coulter XL-I, absorbance at 280 nm); conditions: 20°C, 150 mM NaCl, 10 mM CaCl2, pH 5: 50 mM NaCit (sodium citrate), pH 8: 50 mM Tris
[2] = target: the molecule itself; assay: AUC; sedimentation equilibrium, pH 5 (50 mM NaCit pH 5, 150 mM NaCl, 10 mM CaCl2), 20°C, 2, 5 and 10 µM protein, 9,000, 13,000 and 16,000 rpm, single-species model

Molecule	apparent molecular weight (single-species fit); oligomeric state ([1]; pH 5)	apparent molecular weight (single-species fit); oligomeric state ([1]; pH 8)	stoichiometry N [2]
PvS1FL (full-length Plasmodium vivax subtilisin-like protease 1, Sub1, autoprocessed with bound prodomain)	135.8 ± 2.8 kDa (stable homodimer; theoretical monomer 67.71 kDa)	67.9 ± 1.1 kDa (monomer; theoretical monomer 67.71 kDa)	
B1			2
